Data reported in publication PMC13036491, “RNA binding protein Musashi1 interacts with the viral genomic RNA and restricts SARS-CoV-2 infection by repressing translation”.

B1: M2 mutant RNA (ssRNA)
RNA: GGGAUUUUAGCCGUGCUAUCCCCA
B2: M1 mutant RNA (ssRNA)
RNA: GGGUAGCACAAGCCGAUGCCGUUAA

Molecular target: GST-Msi1 (Homo sapiens, UniProt O43347 1-362)
Assay: EMSA
Settings: protein: recombinant; tags: N-terminal GST (pGEX 5X-2); label: fluorescein-12-UTP

GST-Msi1, sequence (O43347 whole entry): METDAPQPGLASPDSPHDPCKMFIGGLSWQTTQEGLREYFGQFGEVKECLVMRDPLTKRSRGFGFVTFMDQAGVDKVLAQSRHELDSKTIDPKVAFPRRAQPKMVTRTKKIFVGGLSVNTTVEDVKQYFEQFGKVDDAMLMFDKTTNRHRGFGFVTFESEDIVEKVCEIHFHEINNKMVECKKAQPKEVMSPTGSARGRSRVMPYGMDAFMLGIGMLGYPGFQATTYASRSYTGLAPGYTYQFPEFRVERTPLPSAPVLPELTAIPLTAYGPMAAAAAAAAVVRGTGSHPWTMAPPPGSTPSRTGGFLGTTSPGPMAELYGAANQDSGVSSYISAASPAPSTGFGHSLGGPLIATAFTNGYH

Row | Binder | binding result
1 | B1 | no binding
2 | B2 | no binding
